US20210054355A1 (NEW YORK UNIVERSITY, published 2021)

What was measured:
[1] = molecular target: T1, Soluble human α-Klotho ectodomain (αKlotho^ecto) (human, UniProt Q9UEF7 34-981); assay: SEC-MALS, 1:1:1 mixture with FGFR1c^ecto and αKlotho^ecto
T1 construct: also called wild-type αKlotho^ecto; soluble αKlotho
T1 sequence: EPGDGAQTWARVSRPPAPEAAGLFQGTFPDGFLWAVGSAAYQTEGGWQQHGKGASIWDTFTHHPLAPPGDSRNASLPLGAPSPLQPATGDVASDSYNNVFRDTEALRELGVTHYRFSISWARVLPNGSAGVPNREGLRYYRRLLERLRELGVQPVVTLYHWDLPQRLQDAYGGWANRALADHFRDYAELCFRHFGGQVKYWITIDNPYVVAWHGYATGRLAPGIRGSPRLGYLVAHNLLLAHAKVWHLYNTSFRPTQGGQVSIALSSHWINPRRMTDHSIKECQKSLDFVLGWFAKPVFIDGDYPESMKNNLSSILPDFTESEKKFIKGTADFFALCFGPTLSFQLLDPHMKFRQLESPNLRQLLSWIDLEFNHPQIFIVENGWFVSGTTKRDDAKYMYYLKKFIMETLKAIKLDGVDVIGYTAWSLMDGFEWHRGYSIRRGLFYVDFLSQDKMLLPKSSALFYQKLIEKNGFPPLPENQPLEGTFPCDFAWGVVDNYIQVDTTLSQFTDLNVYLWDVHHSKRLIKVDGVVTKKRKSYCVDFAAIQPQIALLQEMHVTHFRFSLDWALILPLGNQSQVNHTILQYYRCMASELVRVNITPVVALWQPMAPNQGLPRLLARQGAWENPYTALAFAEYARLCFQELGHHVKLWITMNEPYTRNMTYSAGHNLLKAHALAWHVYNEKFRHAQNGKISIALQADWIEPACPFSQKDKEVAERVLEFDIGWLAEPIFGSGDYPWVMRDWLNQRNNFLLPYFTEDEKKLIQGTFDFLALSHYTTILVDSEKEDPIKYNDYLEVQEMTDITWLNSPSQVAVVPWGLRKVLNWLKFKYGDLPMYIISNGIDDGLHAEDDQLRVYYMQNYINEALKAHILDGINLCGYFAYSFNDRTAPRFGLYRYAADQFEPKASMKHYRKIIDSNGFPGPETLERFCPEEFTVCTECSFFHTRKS
Protocol: (§1) A Superdex 200 10/300 GL column (GE Healthcare, USA) was placed in-line between the HPLC pump (Waters 1525) and the HPLC UV (Waters 2998 Photodiode Array), laser light scattering, and refractive index detectors. Light scattering and refractive index detectors were calibrated following the manufacturer's guidelines. The refractive index increment (dn/dc) in which n is the refractive index and c is the concentration of the mixture of DDM and CHS in 20 mM Tris-HCl pH 8.0 buffer containing 300 mM NaCl, was determined offline using an Optilab T-rEX refractive index detector. Monomeric bovine serum albumin (#23210, Thermo Scientific, USA) was used as part of routine data quality control.
(§2) 60 ml or more of 25 mM HEPES pH 7.5 buffer containing 150 mM NaCl were passed through the system at a flow rate of 0.5 mL/min to equilibrate the Superdex 200 10/300 GL column and establish stable baselines for light scattering and refractive index detectors. Purified αKlotho^ecto, FGER1c^ecto (wild type or mutant), and FGF23 (wild type or mutant) proteins were mixed at a molar ratio of 1:1:1 and concentrated to 12.5 μM. 50 μl of protein samples with a molar equivalent of a heparin hexasaccharide (#H006, Iduron, Manchester, U.K.) were injected onto the gel filtration column, and the column eluent was continuously monitored for 280 nm absorbance, laser light scattering, and refractive index. […]

[2] = molecular target: T2, FGFR1c^ecto (human FGFR1c ligand-binding domain, D2, D3 and D2-D3 linker) (human, UniProt P11362 142-365); assay: SEC-MALS, 1:1:1 ternary complex with FGFR1c^ecto and αKlotho^ecto
T2 sequence: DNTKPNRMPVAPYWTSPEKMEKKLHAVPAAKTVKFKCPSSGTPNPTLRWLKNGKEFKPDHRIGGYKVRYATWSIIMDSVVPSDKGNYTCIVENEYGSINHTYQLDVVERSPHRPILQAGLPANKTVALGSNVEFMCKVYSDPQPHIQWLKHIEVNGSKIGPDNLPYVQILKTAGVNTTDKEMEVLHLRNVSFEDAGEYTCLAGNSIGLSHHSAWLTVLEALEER
Protocol: as §1, §2

binding result [1]: binds
binding result [2]: binds
B1: FGF23^ΔSRBS (FGF23^WT carrying M149A/N150A/P151A) (ligand)
chain: YPNASPLLGSSWGGLIHLYTATARNSYHLQIHKNGHVDGAPHQTIYSALMIRSEDAGFVVITGVMSRRYLCMDFRGNIFGSHYFDPENCRFQHQTLENGYDVYHSPQYHFLVSLGRAKRAFLPGAAAPPYSQFLSRRNEIPLIHFNTPIPRQHTQSAEDDSERDPLNVLKPRARMTPAPAS
